Measurements taken from patent US9243280.
Entries after “also recorded” stand apart in the source; their conditions may differ.

Key:
[1] = test system: GFP fusion with aminoglycoside acetyltransferase (AAC)
[2] = target: Ribosomal protein S1 bearing the C-terminal control peptide tag (UniProt P0AG67)
[3] = target: Ribosomal protein S1 bearing the C-terminal degradation peptide tag (UniProt P0AG67)

For “ClpXP protease (complex of a hexamer of the ClpX unfoldase and the 14-mer ClpP protease)”, the “in vitro degradation at 30 degrees C with ClpX, ClpP, ATP and an ATP regeneration system (SDS-PAGE, Coomassie staining)” value [1] was “By 80 minutes, all of the substrate (10-fold over ClpX6) was degraded”, the “colony formation on plates with arabinose (ClpP and ClpX induced)” value [2] was “Colony formation by the rpsA-cont strain was unaffected by ClpP-X expression” and the “level of S1-cont after induction of ClpP-X (anti-FLAG immunoblot of total protein)” value [2] was “The induction of ClpP-X in the rpsA-cont strain did not alter the level of S1-cont throughout the time course”. For the same substance, the “amount of S1-deg present 25, 35, and 45 minutes post induction, quantified against a dilution series on an immunoblot” value [3] was “less than 0.5% of the level present prior to induction”, the “level of S1-deg after induction of ClpP-X (anti-FLAG immunoblot of total protein)” value [3] was “the level of S1-deg was reduced to approximately 50% by 15 minutes; also recorded: to trace levels at 25 minutes and beyond” and the “number of colony-forming units on plates under inducing against non-inducing conditions” value [3] was “expression of ClpP-X reduced the number of colony-forming units by more than a million-fold when the strain relied on S1-deg for growth”.
